B1: D156 (antibody, V domains shown)
VH: EVQLLESGGGLAQPGGSLRLSCAASGFTFSSYAMSWVRQAPGKGLEWVSAISGSGGTYYADFVKGRFTISRDDSKNTLYLQINSLRAEDTAIYYCAKDGYGSGNYKLRYLELWGRGTLVTVSS
VL: QSVLTQPASVSGSPGQSITISCTGTSSDVGGYNYVSWYQQHPGKAPKFMIYDVSKRPSGVSNRFSGSKSGNTASLTISGLQAEDEADYYCFSYAGSLVFGGGTKLTVL
B2: D180 (antibody, V domains shown)
VH: EVQLVESGGGLVQPGGTLRLSCEASGFAFSTFWMTWVRQAPGKGLEWVANIKQDGSEKYYVDSVKGRFTISRDNAKNSLYLQMNSLRAEDTAVYYCASRSIVVAGTDYWGQGTLVTVSS
VL: not shown
B3: D153 (antibody, V domains shown)
VH: QVQLVQSGAEVKKPGASVKVSCKASGYTFTSYGISWVRQAPGQGLEWMGWISAYNGNTNYAQKLQGRVTMTTDTSTSTAYMELRSLRSDDTAVYYCARDFNDFWSGYWGYWGQGTLVTVSS
VL: QSALTQPPSASGSPGQSVTISCTGTSSDVGGYNYVSWYQQHPGKAPKLMIYEVSKRPSGVPDRFSGSKSGNTASLTVSGLQAEDEADYYCSSYAGSNNLVFGGGTKLTVL
B4: D170 (antibody, V domains shown)
VH: QVQLVQSGAEVKKPGSSVKVSCKASGGTFSSYAISWVRQAPGQGLEWMGGIIPIFGTANYAQKFQGRVTITADESTSTAYMELSSLRSEDTAVYYCAREGGYCSGGSCSHYFDAFDIWGQGTMVTVSS
VL: QSALTQPASVSGSPGQSITISCTGTSSDVGSYNLVSWYQQHPGKAPKLMIYEGSKRPSGVSNRFSGSKSGNTASLTISGLQAEDEADYYCCSYAGSSTFWVFGGGTKLTVL
B5: D176 (antibody, V domains shown)
VH: QVQLVQSGAEVKKPGASVKVSCKASGYTFTSYDINWVRQATGQGLEWMGWMNPNSGNTGYAQKFQGRVTITRNTSISTAYMELSSLRSEDTAVYYCARGGSLMDVWGKGTTVTVSS
VL: QFVLTQPASVSGSPGQSITISCTGTSSDVGGYNYVSWYQQHPGKAPKLMIYDVSKRPSGVSNRFSGSKSGNTASLTISGLQAEDEADYYCSSYTSSSTFEVFGGGTKLTVL
B6: D026 (antibody, V domains shown)
VH: EVQLVESGGGLVQPGRSLRLSCAASGFTFDDYAMHWVRQAPGKGLEWVSGISWNSGSIGYADSVKGRFTISRDNAKNSLYLQMNSLRAEDTALYYCAKDIHYDSSGLDYWGQGTLVTVSS
VL: not shown
B7: D181 (antibody, V domains shown)
VH: QVQLQESGPGLVKPSQTLSLTCTVSGGSISSGGYYWSWIRQHPGKGLEWIGYIYYSGSTYYNPSLKSRVTISVDTSKNQFSLKLSSVTAADTAVYYCARDRMEIYYDSSGYHPGPFDYWGQGTLVTVSS
VL: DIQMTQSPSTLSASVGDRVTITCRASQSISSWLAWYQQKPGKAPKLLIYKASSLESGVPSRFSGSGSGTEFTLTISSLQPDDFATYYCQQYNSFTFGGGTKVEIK
B8: D139 (antibody, V domains shown)
VH: QVQLVESGGGVVQPGRSLRLSCAASGFTFSSYGMHWVRQAPGKGLEWVAVISYDGSNKYYADSVKGRFTISRDNSKNTLYLQMNSLRAEDTAVYYCAKMGGGVYCSGGSCYSSYFDYWGQGTLVTVSS
VL: AIQLTQSPSSLSASVGDRVTITCRASQGISSALAWYQQKPGKAPKLLIYDASSLESGVPSRFSGSGSGTDFTLTISSLQPEDFATYYCQQFNNYLPLTFGGGTKVEIK
B9: D116 (antibody, V domains shown)
VH: EVQLVESGGGLVLPGGSLRLSCVASGFTFSSYWMTWVRQAPGKGLEWVANIQRDGREKYYVDSLKGRFSISRDNDKNSLYLQMNNLRAEDTGVYYCARAQTCTTCSSPNWFDPWGQGTLVTVSS
VL: QSVLTQPASVSGSPGQSITISCTGTSSDVGSYNLVSWYQQHPGKAPKLIIYEGSKRPSGVSNRFSGSKSGNTASLTISGLQAEDEADYYCCSYAGSNTLVFGGGTKVTVL
B10: D187 (antibody, V domains shown)
VH: QVQLVQSGAEVKKPGSSVKVSCKASGGTFSSYAISWVRQAPGQGLEWMGGIIPIFGTANYAQKFQGRVTITADESTSTAYMELSSLRSEDTAVYYCATRGWSGYQTMQKNAFDIWGQGTMVTVSS
VL: not shown
B11: D134 (antibody, V domains shown)
VH: EVQLVESGGGVVQPGGSLRLSCAASGFTFDDYAMHWVRQAPGKGLEWVSLISGDGGSTYYADSVKGRFTISRDNSKNSLYLQMNSLRTEDTALYYCANGERGGNPRGGYYYYGMDVWGQGTTVTVSS
VL: EIVLTQSPATLSLSPGERATLSCRASQSVSSYLAWYQQKPGQAPRLLIYDASNRATGIPARFSGSGSGTDFTLTISSLEPEDFAVYYCQQRSNWPPYTFGQGTKLEIK
B12: D179 (antibody, V domains shown)
VH: EVQLVESGGGLVQPGRSLRLSCAASGFTFDDYAMHWVRQAPGKGLEWVSGISWNSGSIGYADSVKGRFTISRDNAKNSLYLQMNSLRAEDTALYYCAKGQIVGATSSDYGMDVWGQGTTVTVSS
VL: DIQMTQSPSSVSASVGDRVTITCRASQGISSWLAWYQQKPGKAPKLLIYAASSLQSGVPSRFSGSGSGTDFTLTISSLQPEDFATYYCQQANSFPYTFGQGTKLEIK
B13: C2713 (antibody, V domains shown)
VH: QVQLVQSGAEVKKPGASVKVSCKASGYTFTSYYMHWVRQAPGQGLEWMGIINPSGGSTSYAQKFQGRVTMTRDTSTSTVYMELRSLRSEDTAVYYCARDRSSNYGMDVWGQGTTVTVSS
VL: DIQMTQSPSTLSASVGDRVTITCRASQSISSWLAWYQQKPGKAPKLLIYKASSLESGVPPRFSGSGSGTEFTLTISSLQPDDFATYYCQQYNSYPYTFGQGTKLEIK
B14: D110 (antibody, V domains shown)
VH: EVQLLESGGGLVQPGGSLRLSCTASGFTFSNYAMNWVRQAPGQGLEWVSAISGSGYSTYYVDSAKGRFTISRDNSKNTLYLQMNSLRADDTAVFYCTKSTYYDNSGYYSVFDYWGQGTLVTVSS
VL: NFMLTQPHSVSESPGETVTISCTRSSGNIASKFVQWFQQRPGSSPTTVIYENNQRPSGVPDRFSGSIDSSSNSASLTISGLKTEDEADYYCQSSDSTNVVFGGGTKLTVL
B15: D011 (antibody, V domains shown)
VH: EVQLVESGGGLVQPGRSLRLSCAASGFTFDDYAMHWVRQAPGKGLEWVSGISWNSGSIGYADSVKGRFTISRDNAKNSLYLQMNSLRAEDTALYYCAKGDSSGYYFAYEDYGMDVWGQGTTVTVSS
VL: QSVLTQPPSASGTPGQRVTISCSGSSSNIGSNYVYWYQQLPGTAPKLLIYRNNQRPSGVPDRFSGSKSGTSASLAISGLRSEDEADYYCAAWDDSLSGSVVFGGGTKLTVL
B16: C2725 (antibody, V domains shown)
VH: EVQLVESGGGLVQPGRSLRLSCAASGFTFDDYAMHWVRQAPGKGLEWVSGISWNSGSIGYADSVKGRFTISRDNAKNSLYLQMNSLRAEDTALYYCAKLSRGHYYDFKADSGDFDYWGQGTLVTVSS
VL: QSALTQPASVSGSPGQSITISCTGTSSDVGSYNLVSWYQQHPGKAPKLMIYEGSKRPSGVSNRFSGSKSGNTASLTISGLQAEDEADYYCCSYAGSSWVFGGGTKLTVL
B17: D151 (antibody, V domains shown)
VH: QVQLQQWGAGLLKPSETLSLTCAVYGGSFSGYYWSWIRQPPGKGLEWIGEINHDGDTNYNPSLKSRVTLSVDTSKNQFSLSLSSVTAADTAVYYCARRKQQQSYYYYSIDVWGQGTTVTVSS
VL: DIQMTQSPSSLSASVGDRVTITCRATQGIRNDLGWYQQKPGKAPKRLIYAASSLQSGVPSRFSGSGSGTEFTLTISSLQPEDFATYYCLQHSSYPLTFGGGTKVEIK
B18: D135 (antibody, V domains shown)
VH: EVQLVESGGGLIQPGGSLRLSCAASGFTVSSNYMTWVRQAPGKGLEWVSLIYSGGSTYYTDSVKGRFTISRDNSKNTLYLQMNSLRAEDTAVYYCARLLITMVRGVISSGLDYWGQGTLVTVSS
VL: EIVLTQSPGTLSLSPGERATLSCRASQSVSSSYLAWYQQRPGQPPRLLIYGASSRATGIPDRFSDSGSGTDFTLTISRLEPEDFAVYYCQQYGSSPPITFGQGTRLDIK
B19: D175 (antibody, V domains shown)
VH: QLQLQESGPGLVKPSETLSLTCTVSGGSISSSSYYWGWIRQPPGKGLEWIGSIYYSGSTYYNPSLKSRVTISVDTSKNQFSLKLSSVTAADTAVYYCARGATYYYDSSGYYTPAPFDYWGQGTLVTVSS
VL: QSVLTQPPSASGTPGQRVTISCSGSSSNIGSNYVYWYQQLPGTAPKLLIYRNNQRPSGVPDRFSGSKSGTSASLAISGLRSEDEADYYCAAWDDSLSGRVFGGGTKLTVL
B20: C2692 (antibody, V domains shown)
VH: EVQLVESGGGLVQPGRSLRLSCAASGFTFDDYAMHWVRQAPGKGLEWVSGISWNSGSIGYADSVKGRFTISRDNAKNSLYLQMNSLRAEDTALYYCAKDIDTMVQGGEFYFDYWGQGTLVTVSS
VL: QSALTQPASVSGSPGQSITISCTGTSSDVGGYNYVSWYQQHPGKAPKLMIYDVSNRPSGVSNRFSGSKSGNTASLTISGLQAEDEADYYCSSYTSSSTVVFGGGTKLTVL
B21: D133 (antibody, V domains shown)
VH: EVQLVESGGGLVQPGGSLRLSCAASGFTFSSYDMHWVRQATGKGLEWVSAIGTAGDTYYPGSVKGRFTISRENAKNSLYLQMNSLRAGDTAVYYCARGTTVSQQYPSGIPYYYGMDVWGQGTTVTVSS
VL: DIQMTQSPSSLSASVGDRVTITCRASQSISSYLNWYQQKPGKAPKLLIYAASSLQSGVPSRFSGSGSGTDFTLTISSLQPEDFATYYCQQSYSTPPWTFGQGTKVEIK
B22: D087 (antibody, V domains shown)
VH: QVQLVQSGAEVKKPGASVKVSCKASGYTFTNYDFNWVRQAPGQGLEWMGWMNPNSGNTGYAQKFQGRVTITRNTSINTAYMELSSLRSEDTAVYYCARAPDCSSFSCSYYFDYWGQGTLVTVSS
VL: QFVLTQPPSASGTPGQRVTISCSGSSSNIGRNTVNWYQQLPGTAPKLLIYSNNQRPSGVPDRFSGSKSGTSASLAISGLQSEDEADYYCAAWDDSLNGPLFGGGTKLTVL
B23: D130 (antibody, V domains shown)
VH: EVQLVESGGGLVQPGRSLRLSCAASGFTFDDYAMHWVRQAPGKGLEWVSGISWNSGSIGYADSVKGRFTISRDNAKNSLYLQMNSLRAEDTALYYCAKSGLYGDYDAAFDYWGQGTLVTVSS
VL: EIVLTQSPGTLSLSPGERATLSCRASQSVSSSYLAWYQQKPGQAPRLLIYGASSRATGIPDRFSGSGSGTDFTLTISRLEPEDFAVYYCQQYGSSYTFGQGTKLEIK
B24: D090 (antibody, V domains shown)
VH: EVQLVESGGGLVQPGRSLRLSCAASGFTFDDYAMHWVRQAPGKGLEWVSGISWNSGSIGYADSVKGRFTISRDNAKNSLYLQMNSLRAEDMALYYCAKGLPYSSSWYDAFDIWGQGTMVTVSS
VL: not shown
B25: D185 (antibody, V domains shown)
VH: QVQLVQSGAEVKKPGSSVKVSCKASGGTFSSYAISWVRQAPGQGLEWMGGIIPIFGTANYAQKFQGRVTITADKSTSTAYMELSSLRSEDTAVYYCARAQQQLVQHGGYGMDVWGQGTTVTVSS
VL: QSVLTQPPSVSGAPGQRVTISCTGSSSNIGAGYDVHWYQQLPGTAPKLLIYGNSNRPSGVPDRFSGSKSGTSASLAITGLQAEDEADYYCQSYDSSLSAVVFGGGTKLTVL
B26: D119 (antibody, V domains shown)
VH: QLQLQESGPGLVKPSETLSLTCTVSGGSISSSSYYWGWIRQPPGKGLEWIGSIYYSGSTYYNPSLKSRVTISVDTSKNQFSLKLSSVTAADTAVYYCARLYSSGWYAFISWGQGTLVTVSS
VL: not shown

Biological target: SARS-CoV-2 spike RBD (WT) (Severe acute respiratory syndrome …, UniProt P0DTC2)
Experiment: ELISA
Design: unit not given here

| Binder | binding score |
| --- | --- |
| B1 | > 10000 |
| B2 | 8900 |
| B3 | > 10000 |
| B4 | 3050 |
| B5 | 1430 |
| B6 | > 10000 |
| B7 | > 10000 |
| B8 | 311 |
| B9 | > 10000 |
| B10 | > 10000 |
| B11 | > 10000 |
| B12 | 8900 |
| B13 | 4560 |
| B14 | 2330 |
| B15 | > 10000 |
| B16 | 230 |
| B17 | > 10000 |
| B18 | 1110 |
| B19 | > 10000 |
| B20 | 1200 |
| B21 | > 10000 |
| B22 | > 10000 |
| B23 | > 10000 |
| B24 | > 10000 |
| B25 | > 10000 |
| B26 | > 10000 |

— paper PMC9876794 (2022)
